In article PMC13233820, “Recruitment of Mre11 to recombination sites during meiosis” (Nature Communications, 2026):

How the values were obtained:
pUC19 plasmid substrate = experiment: Gel shift assay, plasmid DNA binding; conditions: 1 nM pUC19, 25 mM HEPES-HCl pH 7.5, 100 mM NaCl, 5 mM EDTA, 30 °C 30 min
Procedure: Proteins were diluted to their appropriate working concentrations in their respective storage buffers. […] Reactions were assembled at 30 °C for 30 mins and resolved in a 1% agarose (SeaKem LE Agarose, Lonza) at 60 V for 120 mins at 4 °C. Gels were stained with SYBR Gold Nucleic Acid Gel Stain (S11497, Invitrogen) for 40 mins and visualized with Amersham Typhoon biomolecular imager (Cytiva).

[1] = test system: supercoiled pUC19 plasmid DNA; experiment: In vitro condensation assay of Mre11 (fluorescence microscopy); type: biochemical; conditions: eGFP-tagged truncations with plasmid DNA
Procedure: Fig. 1 Mre11 and the MRX complex assemble DNA-dependent condensates in vitro. a, c Effect of the presence of plasmid DNA on condensation of (a) Alexa488-labeled Mre11 (n = 11 and 9 fields of view for reactions without and with DNA, respectively) and (c) eGFP-tagged MRX (n = 11 (- DNA) and 9 ( + DNA)). Experiments were performed without PEG. b, d Effect of DNase I, in the absence of PEG, on (b) Mre11 (n = 9 (no treatment) and 11 (DNase I)) and (d) MRX (n = 9 (no treatment) and 11 (DNase I)) condensates. Condensates were pre-assembled for 20 min with 5.7 nM pUC19 prior to challenge. Quantification represents total foci intensity (green) in a field of view and total number of foci per 1000 µm^2 (magenta). Foci intensity is normalized to the mean intensity of samples with DNA for (a, c) and untreated samples for (b, d). […] Quantification represents total foci intensity (green) in a field of view (normalized to the mean of + PEG images) and total number of foci per 1000 µm^2 (magenta). […]
Fig. 2 The C-terminal IDR of Mre11 is required for condensation. a AlphaFold2 predicted model of Mre11 (AF-P32829-F1-v4). […] Quantification represents total fluorescence intensity (green) in a field of view and total number of foci per 1000 µm^2 (magenta). […]

spores of yeast strains = experiment: Spore viability assay; type: cell-based, Saccharomyces cerevisiae; conditions: Fig. 7c
Procedure: For the spore viability assay, a small patch of the diploid strain was incubated in sporulation media (2% potassium acetate) at 30 °C, 250 rpm for two days. After two days, 1 mL of sporulating culture was centrifuged, and all but 200 µL of supernatant was removed. To digest yeast cells, 2 µL of concentrated sporulation culture was mixed with 100 µL 1 M sorbitol and 1 µL 10 mg/ml zymolyase and incubated at 30 °C for 21 mins. 20 µL of digested cells were dropped on a YPD plate, left to dry for about 10 mins, and were micromanipulated using a tetrad dissector (MSM400, Singer Instruments). At least 20 tetrads were dissected for each assay, and spore viability was assessed by calculating the number of viable spores after 2 days of incubation at 30 °C.

Mer2 = experiment: Co-immunoprecipitation of Mer2 and Mre11 from meiotic extracts; type: binding, Saccharomyces cerevisiae; conditions: Supplementary Fig. 6i
Procedure: Meiotic cultures were collected at 4 h after transferring to SPM, washed once in ice-cold 1 × PBS containing 1 mM PMSF, following which, they were transferred to 1.5 ml screw-cap tubes and were either snap frozen in liquid nitrogen or processed directly. […] 900 µL of 0.5 mm zirconium beads were added to the cell pellet, and cells were lyzed in a Precellys bead beater at 7200 rpm for 12 × 15 seconds while chilling the tubes for 2 min on ice between each cycle. Cell extract was collected by poking a hole at the bottom of the tubes while placing the tubes on top of another 1.5 ml tubes and centrifuging at 800 × g for 1 min at 4 °C. Beads were washed with 500 µl of IP buffer and collected in the same tube. Cell lysate was spun again at 800 g for 5 min at 4 °C and supernatant was transferred to 15 mL tubes. Sonication was performed three times in ice in Bioruptor Plus at intensity (M) in a 30 s ON / 30 s OFF cycle for 15 min each time. The lysate was centrifuged at 15.000 g at 4 °C for 10 min and the supernatant (~ 800 µl) was transferred to new 1.5 ml tubes. 80 µL (10%) was collected as Input fraction and snap frozen. 1 µL of mouse monoclonal anti-myc primary antibody was added to each tube, and tubes were rotated overnight at 5 rpm at 4 °C. The following day, Dynabeads Protein G (30 µl per tube) were added to Protein LoBind tubes and washed two times with 1 mL IP buffer containing 1 mM PMSF using DynaMag2. The lysates with the antibody were transferred to the tubes containing Dynabeads and were rotated for 3-4 hours at 5 rpm at 4 °C, following which, the Dynabeads were collected and washed four times with 1 ml IP buffer containing 1 mM PMSF. Finally, 60 µL IP buffer and 20 µL 4 × Lammelli buffer was added to the tubes and incubated for 5 mins at 95 °C while shaking at 1000 rpm. TCA extraction was performed on the input fractions by adding 8 µL 100 % TCA (final 10 % TCA) and incubating on ice for 30 mins. Precipitated proteins were solubilized in 40 µL 1 × Laemmli sample buffer incubated for 5 mins at 95 °C. Immunoblotting was performed using the protocol described below.

B1: Mre11-IDR: Mre11 disordered region alone (524-677) (protein, UniProt P32829 524-677, looked up, fragment)
chain: NSVRPTPPKENDETNFAFNGNGLDSFRSSNREVRTGSPDITQSHVDNESRITHISQAESSKPTSKPKRVRTATKKKIPAFSDSTVISDAENELGDNNDAQDDVDIDENDIIMVSTDEEDASYGLLNGRKTKTKTRPAASTKTASRRGKGRASRT
DNA-binding activity (in words) (pUC19 plasmid substrate): reduced DNA binding as compared to the wild type or Mre11^ΔIDR
Condensation of Mre11 truncations (in words) [1]: failed to form condensates

B2: Mre11-myc (WT) (protein, UniProt P32829 1-692, looked up)
Double-strand break repair …: MDYPDPDTIRILITTDNHVGYNENDPITGDDSWKTFHEVMMLAKNNNVDMVVQSGDLFHVNKPSKKSLYQVLKTLRLCCMGDKPCELELLSDPSQVFHYDEFTNVNYEDPNFNISIPVFGISGNHDDASGDSLLCPMDILHATGLINHFGKVIESDKIKVVPLLFQKGSTKLALYGLAAVRDERLFRTFKDGGVTFEVPTMREGEWFNLMCVHQNHTGHTNTAFLPEQFLPDFLDMVIWGHEHECIPNLVHNPIKNFDVLQPGSSVATSLCEAEAQPKYVFILDIKYGEAPKMTPIPLETIRTFKMKSISLQDVPHLRPHDKDATSKYLIEQVEEMIRDANEETKQKLADDGEGDMVAELPKPLIRLRVDYSAPSNTQSPIDYQVENPRRFSNRFVGRVANGNNVVQFYKKRSPVTRSKKSGINGTSISDRDVEKLFSESGGELEVQTLVNDLLNKMQLSLLPEVGLNEAVKKFVDKDEKTALKEFISHEISNEVGILSTNEEFLRTDDAEEMKALIKQVKRANSVRPTPPKENDETNFAFNGNGLDSFRSSNREVRTGSPDITQSHVDNESRITHISQAESSKPTSKPKRVRTATKKKIPAFSDSTVISDAENELGDNNDAQDDVDIDENDIIMVSTDEEDASYGLLNGRKTKTKTRPAASTKTASRRGKGRASRTPKTDILGSLLAKKRK
modifications: myc tag
Visible spore colonies (spores of yeast strains; spores placed: 144 (WT), 80 (ΔC15), 88 (SIM), 80 (ΔC15+ SIM)): 140
Spore Viability (spores of yeast strains; visible spore colonies of spores placed): 97.22

B3: Mre11-ΔC15: Mre11 lacking the C-terminal 15-residue α-helix (protein)
chain: MDYPDPDTIRILITTDNHVGYNENDPITGDDSWKTFHEVMMLAKNNNVDMVVQSGDLFHVNKPSKKSLYQVLKTLRLCCMGDKPCELELLSDPSQVFHYDEFTNVNYEDPNFNISIPVFGISGNHDDASGDSLLCPMDILHATGLINHFGKVIESDKIKVVPLLFQKGSTKLALYGLAAVRDERLFRTFKDGGVTFEVPTMREGEWFNLMCVHQNHTGHTNTAFLPEQFLPDFLDMVIWGHEHECIPNLVHNPIKNFDVLQPGSSVATSLCEAEAQPKYVFILDIKYGEAPKMTPIPLETIRTFKMKSISLQDVPHLRPHDKDATSKYLIEQVEEMIRDANEETKQKLADDGEGDMVAELPKPLIRLRVDYSAPSNTQSPIDYQVENPRRFSNRFVGRVANGNNVVQFYKKRSPVTRSKKSGINGTSISDRDVEKLFSESGGELEVQTLVNDLLNKMQLSLLPEVGLNEAVKKFVDKDEKTALKEFISHEISNEVGILSTNEEFLRTDDAEEMKALIKQVKRANSVRPTPPKENDETNFAFNGNGLDSFRSSNREVRTGSPDITQSHVDNESRITHISQAESSKPTSKPKRVRTATKKKIPAFSDSTVISDAENELGDNNDAQDDVDIDENDIIMVSTDEEDASYGLLNGRKTKTKTRPAASTKTASRRGKGRASRT
modifications: left off: Gal4 activation domain (from the vector pGAD-C1), end not stated, kept
notes: Mre11 lacking the C-terminal 15-residue α-helix
Normalized to WT Mer2 IP (Mer2; Experiment 1): 68.56

B4: Mer2-EQEK (protein)
chain: MVARGRTDEISTDVSEANSEHSLMITETSSPFRSIFSHSGKVANAGALEASDKAILAWAGALELESMELRENSDKLIKVLNENSKTLCKSLNKFNQLLEQDAATNGNVKTLIKDLASQIENQLDKVSTAMLSKGDEKKTKSDSSYRQVLVEEISRYNSKITRHVTNKQHETEKSMRCTQEMLFNVGSQLEDVHKVLLSLSKDMHSLQTRQTALEMAFREKADHAYDRPDVSLNGTTLLHDMDEAHDKQRKKSVPPPRMMVTRSMKRRRSSSPTLSTSQNHNSEDNDDASHRLKRAARTIIPWEELRPDTLESEL
modifications: left off: V5, internal (after residue 248), kept
Normalized to WT Mer2 IP (Mer2; Experiment 1): 56.73
Normalized to WT Mer2 IP (Mer2; Experiment 2): 70.72
